These results are taken from US12397037B2, “Methods and compositions for immunomodulation” (CHILDREN'S MEDICAL CENTER CORPORATION, priority 2014, dated 2025).

The subject of series [1] is U87MG cells. As to the kind of experiment: Western blot of PI-3K/Akt-mTOR and MAPK signaling in U87MG cells. In kind it is cell-based, human. As for the experimental part:
U87MG which express NRP-2 were used for this assay.
To determine the effect of SEMA3F on intracellular signaling responses, levels of phosphokinases in the NRP2-expressing human glioblastoma cell line U87MG were profiled.
Western blotting: Proteins within each sample were separated by SDS-PAGE and transferred to nitrocellulose membranes. The membranes were blocked with 4% skimmed milk in TBS-T (0.1% Tween 20 in tris-buffered saline [TBS]) for 30 minutes, followed by incubation with the primary antibody. After washing with TBS-T, membranes were incubated with the appropriate horseradish peroxidase-conjugated secondary antibody, and immunoreactivity was detected by using ECL detection reagents.
Background: A western blot detects proteins with antibodies after separation by electrophoresis.

For series [2], the system named is HUVEC. Briefly: Western blot of pAkt in HUVEC after PTEN siRNA knockdown. The format is cell-based, human. The following applies: PTEN siRNA 20 nM, SEMA3F 1800 ng/ml. As for the experimental part:
FIG. 36A depicts a western blot. HUVEC were treated with SEMA3F (1800 ng/ml) for 30 minutes and were subjected to immunoprecipitation and Western blot analyses with anti-NRP2 and -PTEN as illustrated. FIG. 36B depicts a western blot. HUVEC were transfected with control-, or Plexin A1-specific siRNAs (20 nM), prior to SEMA3F treatment (1800 ng/ml); lysates were subjected to immunoprecipitation and Western blot analyses with anti-NRP2 and anti-PTEN as illustrated. FIG. 36C depicts a western blot. HUVEC were transfected with control-, or PTEN-specific siRNAs (20 nM), prior to SEMA3F treatment (1800 ng/ml); lysates were analyzed by Western blot. FIG. 36D depicts a western blot. U87MG cells were transfected with control or GIPC1-specific siRNA (20 nM). After 48 hours, cells were treated with SEMA3F (200, 600, 1800 ng/ml, from left to right) for 30 minutes, and were analyzed by Western blot. FIG. 36E depicts a western blot. U87MG cells were treated with U0126 (10 μM) for 30 minutes prior to combination with 30 minutes and 60 minutes of SEMA3F (640 ng/ml). Akt and MAPK signaling was analyzed by Western blot. All data presented are representative of 3 independent experiments.
It is thus likely that SEMA3F inactivates mTORC2 via upstream inhibition of PI-3K. […]

Series [3] has as its system U87MG cells. As to the kind of experiment: F-actin stress fiber staining (phalloidin) in U87MG cells. The format is cell-based, human. As for the experimental part:
FIG. 30A depicts U87MG cells treated with SEMA3F (640 ng/ml), rapamycin (10 nM) or Torin 1 (10 nM) for 30 minutes. Subsequently, cells were stained with Alexa Fluor 488 phalloidin and Hoechst 33342 to identify F-actin cytoskeleton stress fibers and cellular nuclei, respectively. […] The scale bar indicates 20 μm. FIG. 30B depicts U87MG cells transiently transfected with a pcDNA3.1 empty vector or with a wild type (WT) mTOR plasmid and after 18 hours treated with SEMA3F (640 ng/ml) for 30 minutes. Cells were stained as described above in FIG. 30A. Representative cellular staining is shown; bar graph represents the number of fibers/cell (mean±SD) from 3 independent experiments. FIG. 30C depicts U87MG cells transfected with control siRNA or with raptor- or rictor-specific siRNAs (20 nM). After 48 hours, they were treated with SEMA3F for 30 minutes and stained with Alexa Fluor 488 phalloidin and Hoechst 33342 as above. The number of stress fibers was evaluated in 3 independent experiments and shown as the mean±SD. FIG. 30D depicts U87MG cells transiently transfected with pcDNA3.1 empty vector or with our WT mTOR plasmid. After 18 hours, the cells were treated with SEMA3F (640 ng/ml) for 10 minutes and RhoA activity was evaluated. FIG. 30E depicts U87MG cells transfected with control siRNA or with raptor- or rictor-specific siRNAs (20 nM), were treated with SEMA3F (640 ng/ml) for 10 minutes and RhoA activity was analyzed. In FIGS. 30D-30E, the intensity of active RhoA was normalized to respective total RhoA; the numbers below each gel lane represent the fold-change in intensity relative to control. FIGS. 30D-30E are representative of 3 independent experiments.
mTORC2 links SEMA3F biology with the F-actin cytoskeleton. It was next determined whether the inhibition of mTORC2 serves as an intermediary response to link SEMA3F activity with cytoskeletal collapse. U87MG cells were treated either with SEMA3F (640 ng/ml), rapamycin (10 nM) or Torin 1 (10 nM) for 30 minutes and the actin cytoskeleton was visualized using phalloidin staining. […] These findings indicate that SEMA3F has minimal direct effects on mTORC1.
F-actin staining: Cells were fixed with 4% paraformaldehyde (PFA) followed by permeabilization with 0.2% Triton X-100 in PBS. F-actin and nuclei were stained with Alexa Fluor 488 phalloidin and Hoechst 33342, respectively. Confocal images from 3-5 areas of each culture were reviewed and stress fibers were counted in representative individual cells (˜5/experiment) using standard methodology as described6.

Series [4] deals with U87MG cells. The following applies: U87MG cells within 24 hours; reference 6; cited from earlier work.
Where [5] appears, read: U87MG cells, 640 ng/ml time course.

B1: SEMA3F: Human recombinant full-length His-Myc-tagged SEMA3F, secreted by transfected 293T cells and purified; class 3 semaphorin, NRP-2 ligand (protein, listed as Homo sapiens)
chain: MLVAGLLLWASLLTGAWPSFPTQDHLPATPRVRLSFKELKATGTAHFFNFLLNTTDYRILLKDEDHDRMYVGSKDYVLSLDLHDINREPLIIHWAASPQRIEECVLSGKDVNGECGNFVRLIQPWNRTHLYVCGTGAYNPMCTYVNRGRRAQATPWTQTQAVRGRGSRATDGALRPMPTAPRQDYIFYLEPERLESGKGKCPYDPKLDTASALINEELYAGVYIDFMGTDAAIFRTLGKQTAMRTDQYNSRWLNDPSFIHAELIPDSAERNDDKLYFFFRERSAEAPQSPAVYARIGRICLNDDGGHCCLVNKWSTFLKARLVCSVPGEDGIETHFDELQDVFVQQTQDVRNPVIYAVFTSSGSVFRGSAVCVYSMADIRMVFNGPFAHKEGPNYQWMPFSGKMPYPRPGTCPGGTFTPSMKSTKDYPDEVINFMRSHPLMYQAVYPLQRRPLVVRTGAPYRLTTIAVDQVDAADGRYEVLFLGTDRGTVQKVIVLPKDDQELEELMLEEVEVFKDPAPVKTMTISSKRQQLYVASAVGVTHLSLHRCQAYGAACADCCLARDPYCAWDGQACSRYTASSKRRSRRQDVRHGNPIRQCRGFNSNANKNAVESVQYGVAGSAAFLECQPRSPQATVKWLFQRDPGDRRREIRAEDRFLRTEQGLLLRALQLSDRGLYSCTATENNFKHVVTRVQLHVLGRDAVHAALFPPLSMSAPPPPGAGPPTPPYQELAQLLAQPEVGLIHQYCQGYWRHVPPSPREAPGAPRSPEPQDQKKPRNRRHHPPDT
modifications: His-Myc tag
notes: Human recombinant full-length His-Myc-tagged SEMA3F, secreted by transfected 293T cells and purified; class 3 semaphorin, NRP-2 ligand
With B1, the “pSGK1 (S422) and pPKC (S657)” value in series [1] (U87MG cells) was “inhibited”. Further, in series [1] (U87MG cells transfected with constitutively active Akt (2DAkt), SEMA3F 640 ng/ml), the “pS6K and pS6 in 2DAkt transfected cells” value is on record as “no change in expression”. In series [1] (setting [5]), the “persistence of inhibitory effect” value is recorded as “greater than 60 minutes”; the “time within which pAkt (T308 and S473), pmTOR, pS6K and pS6 were inhibited” value is listed as 10-20 minutes. The “pAkt (S473) in 2DAkt transfectants” value in series [1] (U87MG cells, SEMA3F 640 ng/ml) is recorded as “reduced the level of pAkt (S473)”. Moreover, the “pAkt (T308 and S473) and pS6K” value in series [1] (U87MG cells, SEMA3F 640 ng/ml for 60 minutes vs untreated) was “reduced levels of pAkt (T308 and S473) and pS6K”. The “inhibition of expression of pAkt (S473) (densitometry)” value in series [1] (U87MG cells, SEMA3F ~640 ng/mL, after 10 min) is given as more than 80%. Besides, the “pAkt and pS6K after rapamycin pretreatment” value in series [1] (U87MG cells, rapamycin 30 minutes, then SEMA3F and rapamycin for 60 minutes) was “reduced levels of both pAkt and pS6K”. Moreover, in series [1] (U87MG cells, siRNA 20 nM, SEMA3F 640 ng/ml), the “pAkt, pS6K and pS6 in NRP2 and Plexin A1-siRNA transfected cells” value is “failed to inhibit”. In addition, the “concentration at which peak effects were observed” value in series [1] (U87MG cells, signaling) was approximately 600 ng/mL. In series [1] (U87MG cells, ~640 ng/mL), the “expression of pERK1/2” value is recorded as “markedly reduced” and the “time of peak effect on pERK1/2” value is reported as not above 30 mins. Also, in series [1] (U87MG cells, ~640 ng/mL, by 30 min), the “pAkt (S473), pAkt (T308), pmTOR and pS6K” value is “most significant reduction”. In series [1] (U87MG, SEMA3F 200 ng/ml, 30 minutes), the “pAkt and pS6K signaling at the lowest concentration” value is “inhibits pAkt and pS6K signaling”. In addition, the “pAkt expression following siRNA knockdown of PTEN” value in series [2] is listed as “failed to inhibit pAkt expression”. Besides, in series [3] (U87MG cells transfected with mTOR overexpression construct, SEMA3F 640 ng/ml, 30 minutes), the “stress fiber formation in mTOR overexpressing cells” value was “minimal effects on stress fiber formation”. The “stress fiber formation and cytoskeletal arrangement” value in series [3] (U87MG cells, SEMA3F 640 ng/ml, rapamycin 10 nM or Torin 1 10 nM, 30 minutes, vs untreated) was “markedly inhibits stress fiber formation and cytoskeletal arrangement”. In addition, the “stress fiber formation in raptor-siRNA treated cells” value in series [3] (U87MG cells, siRNA 20 nM, SEMA3F 30 minutes) was “reduced stress fiber formation”. For the same molecule, the “inhibition of stress fiber formation” value in series [3] (pcDNA3.1 control vector transfected U87MG cells, SEMA3F 640 ng/ml, 30 minutes) is listed as 90%. In addition, in series [4], the apoptosis entry is “does not induce apoptosis”.
